In patent publication US11224662B2, “Methods and therapeutics comprising ligand-targeted ELPs” (priority 2012, dated 2022):

Key:
[1] = Dynamic light scattering of ELP nanoparticles; assay type: physicochemical; settings: for formation of nanoparticles: ELP without knob, S96 and I96 data not shown; for Hydrodynamic radius (nm) at 37° C.: 25 μM in PBS
Method: (§1) To explore the temperature-dependent phase behavior of the ELPs, optical density and hydrodynamic radius were observed over a range of temperatures. Knob-S96, S48148 and knob-S48148 were diluted to 25 μM in PBS on ice and the absorbance at 350 nm was monitored with a DU800 UV-Vis spectrophotometer (Beckman Coulter, Brea, Calif.) at a temperature gradient of 1° C./minute. […] Then 90 μL sample of was transferred into a 384 well microplate and covered with 20 μL mineral oil. The microplate and mineral oil were pre-chilled at 4° C. at least for 1 hour. The microplate was centrifuged at 4° C. to remove air bubbles from samples before and after addition of mineral oil. Then the sample was measured in a DynaPro plate reader (Wyatt Inc., Santa Barbara, Calif.) at temperature intervals of 1° C. The resulting hydrodynamic radii were collected and analyzed by Dynamics (Wyatt Inc., Santa Barbara, Calif.).

[2] = Temperature-dependent optical density (turbidity) of ELP fusion peptides; assay type: physicochemical; settings: for phase transition behaviour in optical density over temperature gradient: monoblock knob-ELPs, single increase in optical density; for Critical aggregation temperature: optical density at 350 nm by UV-Vis spectrophotometer
Method: as §1

[3] = tested on: transformed mouse hepatocytes; test: Live cell uptake of rhodamine-conjugated ELP/knob-ELP in hepatocytes; assay type: cell-based; settings: 10 μM rhodamine-labeled, 30 minutes at 37° C., confocal microscopy, LYSOTRACKER green
Method: To track cellular uptake, the ELPs S48148 and knob-S48148 were conjugated with a detectable label, NHS-Rhodamine (Thermo Fisher Scientific Inc, Rockford, Ill.) via covalent modification of primary amines at the amino end of the peptide. For S48148, the only available amine is at the amino terminus; however, knob-S48148 has an additional 11 lysine residues that may be sites of modification. The conjugation was performed in 100 mM borate buffer for 2 hours at 4° C., and the conjugated ELP was separated by size exclusion chromatography on a PD10 desalting column (GE Healthcare, Piscataway, N.J.).
To observe uptake into mouse hepatocytes, cells were cultured on 35 mm glass coverslip-bottomed dishes with medium [(DMEM (4.5 g/L) containing 10% fetal bovine serum, g/ml insulin, and 0.02 [μg/ml epidermal growth factor]. Uptake studies were conducted when hepatocytes reached 70% confluence. After washing with warm fresh medium, hepatocytes were cultured in medium containing 10 μM of either S48148 or knob-S48148 conjugated with rhodamine, and 75 nM LYSOTRACKER® green. After 30 minutes incubation at 37° C., the cells were rinsed with warm fresh medium to remove the free knob-ELP/ELP in the medium. Next cells were incubated with 75 nM LYSOTRACKER® green in a 37° C. incubation chamber. […]

Molecule	formation of nanoparticles [1]	phase transition behaviour in optical density over temperature gradient [2]	Critical aggregation temperature ([2]; 25 μM in PBS) [°C]	Hydrodynamic radius (nm) at 37° C. ([1]; dynamic light scattering) [nm]	further results
(VPGSG)96 (SEQ ID. NO: 13) (protein) VPGSGVPGSGVPGSGVPGSGVPGSGVPGSGVPGSGVPGSGVPGSGVPGSGVPGSGVPGSGVPGSGVPGSGVPGSGVPGSGVPGSGVPGSGVPGSGVPGSGVPGSGVPGSGVPGSGVPGSGVPGSGVPGSGVPGSGVPGSGVPGSGVPGSGVPGSGVPGSGVPGSGVPGSGVPGSGVPGSGVPGSGVPGSGVPGSGVPGSGVPGSGVPGSGVPGSGVPGSGVPGSGVPGSGVPGSGVPGSGVPGSGVPGSGVPGSGVPGSGVPGSGVPGSGVPGSGVPGSGVPGSGVPGSGVPGSGVPGSGVPGSGVPGSGVPGSGVPGSGVPGSGVPGSGVPGSGVPGSGVPGSGVPGSGVPGSGVPGSGVPGSGVPGSGVPGSGVPGSGVPGSGVPGSGVPGSGVPGSGVPGSGVPGSGVPGSGVPGSGVPGSGVPGSGVPGSGVPGSGVPGSGVPGSGVPGSGVPGSGVPGSGVPGSGVPGSGVPGSG	do not form nanoparticles	–	–	–	–
knob-(VPGSG)96Y (SEQ ID. NO: 8) (protein) VPGSGVPGSGVPGSGVPGSGVPGSGVPGSGVPGSGVPGSGVPGSGVPGSGVPGSGVPGSGVPGSGVPGSGVPGSGVPGSGVPGSGVPGSGVPGSGVPGSGVPGSGVPGSGVPGSGVPGSGVPGSGVPGSGVPGSGVPGSGVPGSGVPGSGVPGSGVPGSGVPGSGVPGSGVPGSGVPGSGVPGSGVPGSGVPGSGVPGSGVPGSGVPGSGVPGSGVPGSGVPGSGVPGSGVPGSGVPGSGVPGSGVPGSGVPGSGVPGSGVPGSGVPGSGVPGSGVPGSGVPGSGVPGSGVPGSGVPGSGVPGSGVPGSGVPGSGVPGSGVPGSGVPGSGVPGSGVPGSGVPGSGVPGSGVPGSGVPGSGVPGSGVPGSGVPGSGVPGSGVPGSGVPGSGVPGSGVPGSGVPGSGVPGSGVPGSGVPGSGVPGSGVPGSGVPGSGVPGSGVPGSGVPGSGVPGSGVPGSGVPGSGVPGSGVPGSGVPGSGY	–	well above physiological conditions	68.2	5.3	–
knob-(VPGIG)96Y (SEQ ID. NO: 9) (protein) VPGIGVPGIGVPGIGVPGIGVPGIGVPGIGVPGIGVPGIGVPGIGVPGIGVPGIGVPGIGVPGIGVPGIGVPGIGVPGIGVPGIGVPGIGVPGIGVPGIGVPGIGVPGIGVPGIGVPGIGVPGIGVPGIGVPGIGVPGIGVPGIGVPGIGVPGIGVPGIGVPGIGVPGIGVPGIGVPGIGVPGIGVPGIGVPGIGVPGIGVPGIGVPGIGVPGIGVPGIGVPGIGVPGIGVPGIGVPGIGVPGIGVPGIGVPGIGVPGIGVPGIGVPGIGVPGIGVPGIGVPGIGVPGIGVPGIGVPGIGVPGIGVPGIGVPGIGVPGIGVPGIGVPGIGVPGIGVPGIGVPGIGVPGIGVPGIGVPGIGVPGIGVPGIGVPGIGVPGIGVPGIGVPGIGVPGIGVPGIGVPGIGVPGIGVPGIGVPGIGVPGIGVPGIGVPGIGVPGIGVPGIGVPGIGVPGIGVPGIGVPGIGVPGIGVPGIGVPGIGY	–	phase-separates near room temperature	–	–	–
(VPGIG)96 (SEQ ID. NO: 14) (protein) VPGIGVPGIGVPGIGVPGIGVPGIGVPGIGVPGIGVPGIGVPGIGVPGIGVPGIGVPGIGVPGIGVPGIGVPGIGVPGIGVPGIGVPGIGVPGIGVPGIGVPGIGVPGIGVPGIGVPGIGVPGIGVPGIGVPGIGVPGIGVPGIGVPGIGVPGIGVPGIGVPGIGVPGIGVPGIGVPGIGVPGIGVPGIGVPGIGVPGIGVPGIGVPGIGVPGIGVPGIGVPGIGVPGIGVPGIGVPGIGVPGIGVPGIGVPGIGVPGIGVPGIGVPGIGVPGIGVPGIGVPGIGVPGIGVPGIGVPGIGVPGIGVPGIGVPGIGVPGIGVPGIGVPGIGVPGIGVPGIGVPGIGVPGIGVPGIGVPGIGVPGIGVPGIGVPGIGVPGIGVPGIGVPGIGVPGIGVPGIGVPGIGVPGIGVPGIGVPGIGVPGIGVPGIGVPGIGVPGIGVPGIGVPGIGVPGIGVPGIGVPGIGVPGIGVPGIGVPGIG	do not form nanoparticles	–	–	–	–
G(VPGSG)48(VPGIG)48Y (SEQ ID. NO: 10) (protein) GVPGSGVPGSGVPGSGVPGSGVPGSGVPGSGVPGSGVPGSGVPGSGVPGSGVPGSGVPGSGVPGSGVPGSGVPGSGVPGSGVPGSGVPGSGVPGSGVPGSGVPGSGVPGSGVPGSGVPGSGVPGSGVPGSGVPGSGVPGSGVPGSGVPGSGVPGSGVPGSGVPGSGVPGSGVPGSGVPGSGVPGSGVPGSGVPGSGVPGSGVPGSGVPGSGVPGSGVPGSGVPGSGVPGSGVPGSGVPGSGVPGIGVPGIGVPGIGVPGIGVPGIGVPGIGVPGIGVPGIGVPGIGVPGIGVPGIGVPGIGVPGIGVPGIGVPGIGVPGIGVPGIGVPGIGVPGIGVPGIGVPGIGVPGIGVPGIGVPGIGVPGIGVPGIGVPGIGVPGIGVPGIGVPGIGVPGIGVPGIGVPGIGVPGIGVPGIGVPGIGVPGIGVPGIGVPGIGVPGIGVPGIGVPGIGVPGIGVPGIGVPGIGVPGIGVPGIGVPGIGY	form nanoparticles at physiological temperatures	–	26.5	23.7	Transition Temperature T1 ([2]; first phase transition, optical density, 25 μM in PBS): 26.5 °C; Transition Temperature T2 ([2]; second phase transition, optical density, 25 μM in PBS): 75 °C; size by dynamic light scattering (BSA; unimers of the ELPs) ([1]; BSA stable from 10 to 37° C., ELPs as unimers below assembly temperature): around 4 nm; critical nanoparticle temperature (CNT) ([1]; dynamic light scattering): 26.5 °C; hydrodynamic diameter of nanoparticles ([1]; dynamic light scattering, self-assembled nanoparticles): around 40 nm; cellular uptake / fluorescence localisation [3]: slightly more intense fluorescence on the cell surface
